# Numbering of substitutions follows the chain as printed.
# B1: IgG1-F1198 (antibody)
# heavy: QVQLQESGPGLVKPSETLSLTCAVSGHSISHDHAWSWVRQPPGEGLEWIGFISYSGITNYNPSLQGRVTISRDNSKNTLYLQMNSLRAEDTAVYYCARSLARTTAMDYWGEGTLVTVSSASTKGPSVFPLAPSSKSTSGGTAALGCLVKDYFPEPVTVSWNSGALTSGVHTFPAVLQSSGLYSLSSVVTVPSSSLGTQTYICNVNHKPSNTKVDKKVEPKSCDKTHTCPPCPAPELLGGPSVFLFPPKPKDTLYISREPEVTCVVVDVSHEDPEVKFNWYVDGVEVHNAKTKPREEQYNSTYRVVSVLTVLHQDWLNGKEYKCKVSNKALPAPIEKTISKAKGQPREPQVYTLPPSRDELTKNQVSLTCLVKGFYPSDIAVEWESNGQPENNYKTTPPVLDSDGSFFLYSKLTVDKSRWQQGNVFSCSVMHEALHYHVTRKELSLSP
# light: not shown
# notes: EU numbering; copies: 2 + 2
# B2: IgG1-F1231 (antibody)
# heavy: B1 heavy with E258T, R440K
# light: not shown
# notes: EU numbering; copies: 2 + 2
# B3: IgG1-F1218 (antibody)
# heavy: B1 heavy with L253V, E258T, R440Q, E442S
# light: not shown
# notes: EU numbering; copies: 2 + 2
# B4: IgG1-F1199 (antibody)
# heavy: B1 heavy with S256T
# light: not shown
# notes: EU numbering; copies: 2 + 2
# B5: IgG1-F1243 (antibody)
# heavy: B1 heavy with L237R, S241K, S256T, E258T
# light: not shown
# notes: EU numbering; copies: 2 + 2
# B6: IgG1-F1207 (antibody)
# heavy: B1 heavy with Y254M, E258T, I334E, M430L, Y436S, V438Y, R440Q, E442S
# light: not shown
# notes: EU numbering; copies: 2 + 2
# B7: IgG1-F1206 (antibody)
# heavy: B1 heavy with T252V, S256T, E258Q
# light: not shown
# notes: EU numbering; copies: 2 + 2
# B8: IgG1-F1217 (antibody)
# heavy: B1 heavy with L253T, E258T, R440Q, E442S
# light: not shown
# notes: EU numbering; copies: 2 + 2
# B9: IgG1-F1244 (antibody)
# heavy: B1 heavy with L237R, S241K
# light: not shown
# notes: EU numbering; copies: 2 + 2
# B10: IgG1-F1200 (antibody)
# heavy: B1 heavy with T252V, S256T, E258T
# light: not shown
# notes: EU numbering; copies: 2 + 2
# B11: IgG1-F1246 (antibody)
# heavy: B1 heavy with L237R, S241K, T252V, S256T, E258T
# light: not shown
# notes: EU numbering; copies: 2 + 2
# B12: IgG1-F1202 (antibody)
# heavy: B1 heavy with T252V, S256T
# light: not shown
# notes: EU numbering; copies: 2 + 2
# B13: IgG1-F1232 (antibody)
# heavy: B1 heavy with E258T, R440K, E442D
# light: not shown
# notes: EU numbering; copies: 2 + 2
# B14: IgG1-F1229 (antibody)
# heavy: B1 heavy with I255V, E258T, R440Q, E442S
# light: not shown
# notes: EU numbering; copies: 2 + 2
# B15: IgG1-F1216 (antibody)
# heavy: B1 heavy with L253S, E258T, R440Q, E442S
# light: not shown
# notes: EU numbering; copies: 2 + 2
# B16: IgG1-F1245 (antibody)
# heavy: B1 heavy with L237R, S241K, S256T
# light: not shown
# notes: EU numbering; copies: 2 + 2
# B17: IgG1-F1203 (antibody)
# heavy: B1 heavy with E258Q
# light: not shown
# notes: EU numbering; copies: 2 + 2
# B18: IgG1-F1201 (antibody)
# heavy: B1 heavy with T252V
# light: not shown
# notes: EU numbering; copies: 2 + 2
# B19: IgG1-F1208 (antibody)
# heavy: B1 heavy with L253A, E258T, R440Q, E442S
# light: not shown
# notes: EU numbering; copies: 2 + 2
# B20: IgG1-F1205 (antibody)
# heavy: B1 heavy with T252V, E258Q
# light: not shown
# notes: EU numbering; copies: 2 + 2
# B21: IgG1-F1230 (antibody)
# heavy: B1 heavy with E258T, E442D
# light: not shown
# notes: EU numbering; copies: 2 + 2
# B22: IgG1-F1204 (antibody)
# heavy: B1 heavy with S256T, E258Q
# light: not shown
# notes: EU numbering; copies: 2 + 2
# Molecular target: T1, soluble human FcRn complexed with β2-microglobulin (human, UniProt P61769 21-119, limits assumed)
# T1 construct: also called hFcRn
# Assay: Biacore SPR, pH 7.0;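 also: test antibodies captured on a Protein L chip with human FcRn flowed over as analyte, KD obtained as the ratio of dissociation to association rate constants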
# Experimental: A kinetic analysis of binding between human FcRn and the aforementioned antibodies was carried out using the BIACORE™ T100 or T200 surface plasmon resonance system (GE Healthcare). The antibodies being tested were captured on the CM4 Sensor Chip (GE Healthcare) on which a suitable amount of Protein L (ACTIGEN® protein (Alltech)) was suitably immobilized by amine coupling. Next, diluted human FcRn and a running buffer used as a blank were injected to allow the human FcRn to interact with the antibody captured on the sensor chip. A buffer consisting of 50 mmol/L sodium phosphate, 150 mmol/L NaCl and 0.05% (w/v) polysorbate 20 (Tween 20®) (pH 7.0 or pH 7.4) was used for the running buffer, and each buffer was also used to dilute the human FcRn. 10 mmol/L glycine-HCl (pH 1.5) was used to regenerate the sensor chip. All measurements of binding were carried out at 25° C. The KD(M) of each antibody to human FcRn was calculated based on kinetics parameters, i.e., the association rate constant ka (1/Ms) and the dissociation rate constant kd (1/s) calculated from a sensorgram obtained by the measurement. The BIACORE™ T100 or T200 Evaluation Software (GE Healthcare) was used to calculate each parameter.
row,Kd,Binder
1,78.3 nM,B1
2,97.3 nM,B2
3,251 nM,B3
4,62.5 nM,B4
5,125 nM,B5
6,1110 nM,B6
7,169 nM,B7
8,1140 nM,B8
9,102 nM,B9
10,126 nM,B10
11,173 nM,B11
12,88.1 nM,B12
13,97.9 nM,B13
14,2810 nM,B14
15,1160 nM,B15
16,82 nM,B16
17,152 nM,B17
18,107 nM,B18
19,571 nM,B19
20,198 nM,B20
21,112 nM,B21
22,118 nM,B22

# From patent US20200199241A1 (Chugai, published 2020)
